Non-standard residues stand in square brackets, D forms with d. Groups on a side chain read outwards from the residue. *: point of attachment. Cy5 silica nanoparticle = Cy5 dye-containing core-shell silica nanoparticle (~7 nm); PEG = not defined here; 124I = [124I]*
Legend:
[1] = target: melanocortin-1 receptor (MC1R) on murine B16/F1 and B16F10 melanoma cells (mouse) (UniProt Q01727); experiment: competitive binding against ^125I-NDP, cultured B16/F1 melanoma cells
[2] = target: melanocortin-1 receptor (MC1R) on murine B16/F1 and B16F10 melanoma cells (mouse) (UniProt Q01727); experiment: flow cytometry dose response, B16F10 melanoma cells
[3] = target: melanocortin-1 receptor (MC1R) on human M21 melanoma cells (human) (UniProt Q01726); experiment: flow cytometry dose response, M21 melanoma cells
[4] = target: melanocortin-1 receptor (MC1R) on murine B16/F1 and B16F10 melanoma cells (mouse) (UniProt Q01727); experiment: same type of competitive binding assay (given for reference)
[5] = target: T1, αvβ3 integrin receptor (human, on M21 melanoma cells and HUVEC cells) (human, UniProt P06756 31-1048; P05106 27-788); experiment: cell-based or functional assay
[6] = target: T1, αvβ3 integrin receptor (human, on M21 …); experiment: competitive binding, gamma counting, M21 cells
Protocol: Nonspecific binding was determined in the presence of a 1000-fold excess of cRGD (Peptides International, Louisville, Ky.). Scatchard plots of the binding data were generated and analyzed using linear regression analyses (Microsoft Excel 2007) to derive receptor-binding parameters (Kd, Bmax, IC50).
To examine in vitro binding affinity and specificity of ¹²⁴I-cRGDY-PEG-dots and ¹²⁴I-PEGdots to tumor and vascular endothelial surfaces, αᵥβ₃ integrin-overexpressing (M21) and nonexpressing (M21L) melanoma and human umbilical vein endothelial (HUVECs) cell lines were used. Highly specific linear and saturable binding of the cRGDY-PEG-dots was observed over a range of particle concentrations (0 to 8 ng/ml) and incubation times (up to 5-hrs), with maximum differential binding at 4-hr and ˜2.0 ng/ml particle concentration (data not shown) using flow cytometry. Receptor-binding specificity of ¹²⁴I-cRGDY-PEG dots was tested using γ-counting methods after initially incubating M21 cells with excess non-radiolabeled cRGD and then adding various concentrations of the radiolabeled targeted probe (FIG. 8A). […] Based on the Bmax value, the αᵥβ₃ integrin receptor density was estimated to be […] per M21 cell, in reasonable agreement with the previously published estimate of 5.6×10⁴ for this cell line. Cressman, et al., Binding and uptake of RGD-containing ligands to cellular αᵥβ₃ integrins. […]

[7] = target: T1, αvβ3 integrin receptor (human, on M21 …); experiment: Scatchard analysis, gamma counting, M21 cells
Protocol: To assay particle binding and specificity for M21 cells, 24-well plates were coated with 10 μg/ml collagen type I (BD Biosciences, Bedford, Mass.) in phosphate buffered saline (PBS) and incubated (37° C., 30 min). M21 cells (3.0-4.0×10^5 cells/well) were grown to confluency and washed with RPMI 1640 media/0.5% bovine serum albumin (BSA). ¹²⁴I-cRGD-PEG-nanoparticles (0-4.0 ng/ml) were added to wells and cells incubated (25° C., 4 hours), washed with RPMI 1640 media/0.5% BSA, and dissolved in 0.2 M NaOH. […] Nonspecific binding was determined in the presence of a 1000-fold excess of cRGD (Peptides International, Louisville, Ky.). Scatchard plots of the binding data were generated and analyzed using linear regression analyses (Microsoft Excel 2007) to derive receptor-binding parameters (Kd, Bmax, IC50).
To examine in vitro binding affinity and specificity of ¹²⁴I-cRGDY-PEG-dots and ¹²⁴I-PEGdots to tumor and vascular endothelial surfaces, αᵥβ₃ integrin-overexpressing (M21) and nonexpressing (M21L) melanoma and human umbilical vein endothelial (HUVECs) cell lines were used. Highly specific linear and saturable binding of the cRGDY-PEG-dots was observed over a range of particle concentrations (0 to 8 ng/ml) and incubation times (up to 5-hrs), with maximum differential binding at 4-hr and ˜2.0 ng/ml particle concentration (data not shown) using flow cytometry. […]

melanocortin-1 receptor (MC1R) on murine B16/F1 and B16F10 melanoma cells (mouse), sequence (Q01727 whole entry, one chain of several): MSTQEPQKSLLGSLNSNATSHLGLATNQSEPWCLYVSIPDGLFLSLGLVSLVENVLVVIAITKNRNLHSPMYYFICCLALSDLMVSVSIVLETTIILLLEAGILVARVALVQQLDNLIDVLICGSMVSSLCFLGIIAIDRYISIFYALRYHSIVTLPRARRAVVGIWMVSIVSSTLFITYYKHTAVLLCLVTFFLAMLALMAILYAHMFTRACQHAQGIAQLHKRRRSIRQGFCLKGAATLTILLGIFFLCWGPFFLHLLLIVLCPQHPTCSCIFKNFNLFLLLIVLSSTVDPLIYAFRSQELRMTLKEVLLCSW
T1 sequence (P06756 31-1048, chain 1 of 2): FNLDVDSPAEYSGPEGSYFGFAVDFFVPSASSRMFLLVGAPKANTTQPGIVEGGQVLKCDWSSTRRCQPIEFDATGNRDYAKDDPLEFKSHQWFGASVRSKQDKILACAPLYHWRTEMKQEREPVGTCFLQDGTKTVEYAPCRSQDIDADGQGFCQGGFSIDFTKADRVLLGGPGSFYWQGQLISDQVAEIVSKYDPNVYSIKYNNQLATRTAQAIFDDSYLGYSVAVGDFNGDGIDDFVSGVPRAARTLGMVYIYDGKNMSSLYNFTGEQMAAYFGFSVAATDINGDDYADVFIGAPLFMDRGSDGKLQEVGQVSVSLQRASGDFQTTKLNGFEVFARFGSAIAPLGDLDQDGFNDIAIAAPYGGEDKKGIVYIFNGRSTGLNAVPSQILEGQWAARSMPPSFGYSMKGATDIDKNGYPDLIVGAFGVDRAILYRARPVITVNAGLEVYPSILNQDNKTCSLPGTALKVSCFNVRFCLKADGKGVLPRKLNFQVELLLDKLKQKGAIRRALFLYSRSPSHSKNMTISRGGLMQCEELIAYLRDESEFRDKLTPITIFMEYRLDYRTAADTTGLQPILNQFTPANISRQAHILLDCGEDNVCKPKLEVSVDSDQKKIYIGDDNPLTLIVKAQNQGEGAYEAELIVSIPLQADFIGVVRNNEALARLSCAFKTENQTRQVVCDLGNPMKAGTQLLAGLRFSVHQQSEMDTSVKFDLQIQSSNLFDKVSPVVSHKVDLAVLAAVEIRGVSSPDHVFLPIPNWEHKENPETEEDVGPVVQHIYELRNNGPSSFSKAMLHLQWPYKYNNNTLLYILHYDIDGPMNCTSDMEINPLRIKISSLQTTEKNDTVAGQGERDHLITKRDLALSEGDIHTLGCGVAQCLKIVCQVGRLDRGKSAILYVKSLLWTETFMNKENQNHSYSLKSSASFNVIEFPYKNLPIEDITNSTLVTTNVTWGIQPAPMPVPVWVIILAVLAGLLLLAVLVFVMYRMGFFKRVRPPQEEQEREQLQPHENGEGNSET
T1 sequence (P05106 27-788, chain 2 of 2): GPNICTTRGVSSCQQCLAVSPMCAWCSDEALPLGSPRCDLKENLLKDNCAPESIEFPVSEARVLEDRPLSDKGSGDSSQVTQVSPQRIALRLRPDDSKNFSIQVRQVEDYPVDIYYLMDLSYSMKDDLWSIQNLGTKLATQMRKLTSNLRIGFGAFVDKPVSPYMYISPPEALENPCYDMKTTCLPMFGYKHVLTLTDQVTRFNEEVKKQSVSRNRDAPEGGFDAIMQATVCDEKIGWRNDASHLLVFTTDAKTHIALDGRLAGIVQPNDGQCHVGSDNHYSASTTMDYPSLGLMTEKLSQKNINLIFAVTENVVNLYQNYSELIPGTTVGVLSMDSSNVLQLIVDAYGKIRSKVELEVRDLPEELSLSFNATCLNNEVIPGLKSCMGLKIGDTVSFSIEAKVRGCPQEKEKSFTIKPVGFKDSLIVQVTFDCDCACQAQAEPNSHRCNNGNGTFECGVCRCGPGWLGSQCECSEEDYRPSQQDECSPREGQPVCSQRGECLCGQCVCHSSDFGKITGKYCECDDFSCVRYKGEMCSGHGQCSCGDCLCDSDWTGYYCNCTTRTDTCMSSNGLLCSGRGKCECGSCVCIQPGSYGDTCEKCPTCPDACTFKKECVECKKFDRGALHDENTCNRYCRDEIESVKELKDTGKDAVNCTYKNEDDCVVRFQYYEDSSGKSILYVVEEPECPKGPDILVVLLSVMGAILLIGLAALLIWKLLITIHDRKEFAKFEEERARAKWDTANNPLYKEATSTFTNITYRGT
melanocortin-1 receptor (MC1R) on human M21 melanoma cells (human), sequence (Q01726 whole entry): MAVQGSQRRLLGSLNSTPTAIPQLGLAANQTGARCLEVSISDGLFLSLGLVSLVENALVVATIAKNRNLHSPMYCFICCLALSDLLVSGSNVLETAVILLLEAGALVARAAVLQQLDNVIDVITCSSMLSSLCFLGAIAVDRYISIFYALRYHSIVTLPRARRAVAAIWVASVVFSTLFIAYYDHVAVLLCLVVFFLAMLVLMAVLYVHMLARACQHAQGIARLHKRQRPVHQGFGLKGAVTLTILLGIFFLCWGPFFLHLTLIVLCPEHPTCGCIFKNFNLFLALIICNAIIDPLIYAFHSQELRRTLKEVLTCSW

alpha-MSH-PEG-Cy5-C dots (N-Ac-Cys-(Ahx)2-D-Lys-ReCCMSH peptide-bound nanoparticles)
IC50 [1]: 660 pM
saturation concentration [2]: 100 nM
saturation concentration [3]: 100 nM

DOTA-ReCCMSH (original ReCCMSH targeting molecule) (peptide)
IC50 [4]: 2100 pM

B1: cRGDY-PEG-dots (non-radiolabeled, cRGDY peptide-bearing, PEG-coated Cy5 core-shell silica nanoparticles) (other)
peptide: cyclo(RGD[dY]C([maleimide-PEG-Cy5 silica nanoparticle]))
modifications: not fully specified; reading uncertain; also: Cys linked via maleimide to PEG on Cy5 silica nanoparticle
methylene blue uptake (absorbance) of attached M21 cells without particle pre-incubation relative to particle-exposed cells [5]: 2 fold
multivalent enhancement factor (ratio of the cRGD peptide to cRGDY-PEG-dot IC50 values), anti-adhesion assay, M21 cells on vitronectin-coated plates [5]: > 2 fold

B2: ^124I-cRGDY-PEG-dots (radioiodinated, cRGDY peptide-bearing, PEG-coated Cy5 core-shell silica nanoparticles) (other)
peptide: cyclo(RGD[dY](124I)C([maleimide-PEG-Cy5 silica nanoparticle]))
modifications: not fully specified; reading uncertain; also: Cys linked via maleimide to PEG on Cy5 silica nanoparticle
IC50 [6]: 1200 pM
Kd [7]: 510 pM

Reference: patent US20230158180A1 (SLOAN KETTERING INSTITUTE FOR CANCER RESEARCH, published 2023)
